According to US20140072613A1 (published 2014):

T1: DCAMKL2(h) (human, UniProt Q8N568 372-714, limits assumed)
T1 sequence (looked up): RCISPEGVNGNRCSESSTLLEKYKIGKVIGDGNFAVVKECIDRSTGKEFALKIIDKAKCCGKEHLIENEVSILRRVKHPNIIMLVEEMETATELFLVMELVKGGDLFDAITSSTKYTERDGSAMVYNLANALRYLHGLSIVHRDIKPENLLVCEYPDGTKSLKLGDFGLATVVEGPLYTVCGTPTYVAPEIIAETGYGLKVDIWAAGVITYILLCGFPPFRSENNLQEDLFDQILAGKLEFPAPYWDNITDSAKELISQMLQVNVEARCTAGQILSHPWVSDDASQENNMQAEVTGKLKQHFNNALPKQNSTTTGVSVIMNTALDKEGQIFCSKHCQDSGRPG

T2: Ron(h) (human, UniProt Q04912 983-1400, limits assumed)
T2 sequence (looked up): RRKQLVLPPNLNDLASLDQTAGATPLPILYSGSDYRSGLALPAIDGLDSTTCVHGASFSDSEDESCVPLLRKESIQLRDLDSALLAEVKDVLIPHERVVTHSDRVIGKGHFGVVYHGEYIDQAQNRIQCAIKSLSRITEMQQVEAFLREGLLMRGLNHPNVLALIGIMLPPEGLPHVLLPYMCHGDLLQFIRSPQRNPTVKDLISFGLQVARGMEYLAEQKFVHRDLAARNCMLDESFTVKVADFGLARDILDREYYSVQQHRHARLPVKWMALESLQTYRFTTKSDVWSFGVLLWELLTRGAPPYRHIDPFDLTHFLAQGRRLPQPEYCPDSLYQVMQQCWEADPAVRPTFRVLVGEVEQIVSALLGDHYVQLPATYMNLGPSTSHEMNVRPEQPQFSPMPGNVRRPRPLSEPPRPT

T3: DMPK(h) (human, UniProt Q09013 1-629, limits assumed)
T3 sequence (looked up): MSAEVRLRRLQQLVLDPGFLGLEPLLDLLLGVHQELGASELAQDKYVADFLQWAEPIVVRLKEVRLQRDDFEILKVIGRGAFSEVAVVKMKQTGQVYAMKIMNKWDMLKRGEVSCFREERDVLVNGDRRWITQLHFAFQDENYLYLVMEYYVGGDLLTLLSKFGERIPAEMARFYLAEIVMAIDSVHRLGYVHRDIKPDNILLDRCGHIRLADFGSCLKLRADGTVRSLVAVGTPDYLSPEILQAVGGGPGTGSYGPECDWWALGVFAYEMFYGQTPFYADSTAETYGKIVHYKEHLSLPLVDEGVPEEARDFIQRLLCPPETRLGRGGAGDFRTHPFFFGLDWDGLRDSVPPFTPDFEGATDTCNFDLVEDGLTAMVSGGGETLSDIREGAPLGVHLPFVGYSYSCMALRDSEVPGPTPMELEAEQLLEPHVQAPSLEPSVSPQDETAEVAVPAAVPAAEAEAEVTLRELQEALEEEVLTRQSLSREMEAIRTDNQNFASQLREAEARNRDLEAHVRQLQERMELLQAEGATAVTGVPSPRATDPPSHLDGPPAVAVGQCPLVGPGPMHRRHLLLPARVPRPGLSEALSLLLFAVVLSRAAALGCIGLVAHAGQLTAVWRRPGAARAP

T4: EphB4(h) (human, UniProt P54760 561-987, limits assumed)
T4 sequence (looked up): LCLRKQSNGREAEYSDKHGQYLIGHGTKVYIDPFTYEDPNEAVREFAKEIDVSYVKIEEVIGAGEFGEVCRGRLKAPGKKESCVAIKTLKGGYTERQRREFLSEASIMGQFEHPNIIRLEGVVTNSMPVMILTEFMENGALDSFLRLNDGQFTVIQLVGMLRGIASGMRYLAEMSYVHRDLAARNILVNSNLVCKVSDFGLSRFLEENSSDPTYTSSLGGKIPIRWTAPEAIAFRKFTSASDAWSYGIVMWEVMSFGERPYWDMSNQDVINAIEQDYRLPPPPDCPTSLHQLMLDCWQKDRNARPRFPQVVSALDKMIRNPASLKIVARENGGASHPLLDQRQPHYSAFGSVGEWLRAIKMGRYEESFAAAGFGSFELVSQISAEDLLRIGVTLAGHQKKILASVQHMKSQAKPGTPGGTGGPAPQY

T5: Ret(V804L)(h) (human, UniProt P07949 658-1114, limits assumed)
T5 sequence (looked up): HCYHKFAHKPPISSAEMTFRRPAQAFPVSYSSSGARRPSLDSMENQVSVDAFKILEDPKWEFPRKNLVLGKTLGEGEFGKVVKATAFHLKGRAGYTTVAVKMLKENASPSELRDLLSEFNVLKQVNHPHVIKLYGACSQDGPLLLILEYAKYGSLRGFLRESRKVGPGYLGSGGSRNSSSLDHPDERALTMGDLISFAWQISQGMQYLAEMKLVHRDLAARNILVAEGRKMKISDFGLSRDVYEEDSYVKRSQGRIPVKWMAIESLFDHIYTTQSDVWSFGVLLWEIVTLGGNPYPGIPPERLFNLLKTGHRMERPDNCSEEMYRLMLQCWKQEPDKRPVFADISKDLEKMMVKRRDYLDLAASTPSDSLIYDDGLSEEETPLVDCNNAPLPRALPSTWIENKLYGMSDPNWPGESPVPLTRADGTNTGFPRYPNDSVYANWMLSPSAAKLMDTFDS


What was measured:
Assay in all cases: cell-based or functional assay
DCAMKL2(h) = molecular target: T1, DCAMKL2(h)
PKGδ(h) = PKGδ(h) (human)
Lyn(h) = Lyn(h) (human, UniProt P07948 1-512)
Ron(h) = molecular target: T2, Ron(h)
CaMKI(h) = CaMKI(h) (human, UniProt Q14012 1-370)
DMPK(h) = molecular target: T3, DMPK(h)
FGFR4(h) = FGFR4(h) (human, UniProt P22455 460-802, limits assumed)
EphB4(h) = molecular target: T4, EphB4(h)
IRR(h) = IRR(h) (human, UniProt P14616 960-1297, limits assumed)
Syk(h) = Syk(h) (human, UniProt P43405 1-635)
6SK3β(h) = 6SK3β(h) (human, UniProt P49841 1-420)
KDR(h) = KDR(h) (human, UniProt P35968 790-1356, limits assumed)
Ret(V804L)(h) = molecular target: T5, Ret(V804L)(h)

IRR(h), sequence (P14616 960-1297 limits assumed): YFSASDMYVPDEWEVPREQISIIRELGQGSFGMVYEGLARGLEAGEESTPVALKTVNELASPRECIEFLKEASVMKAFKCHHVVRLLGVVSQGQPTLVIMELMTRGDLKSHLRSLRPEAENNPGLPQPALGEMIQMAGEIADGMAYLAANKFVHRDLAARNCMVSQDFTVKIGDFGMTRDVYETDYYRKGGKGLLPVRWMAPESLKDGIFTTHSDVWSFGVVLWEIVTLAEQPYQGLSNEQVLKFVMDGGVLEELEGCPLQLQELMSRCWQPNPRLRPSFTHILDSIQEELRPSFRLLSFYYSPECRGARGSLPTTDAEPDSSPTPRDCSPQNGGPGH
6SK3β(h), sequence (P49841 whole entry): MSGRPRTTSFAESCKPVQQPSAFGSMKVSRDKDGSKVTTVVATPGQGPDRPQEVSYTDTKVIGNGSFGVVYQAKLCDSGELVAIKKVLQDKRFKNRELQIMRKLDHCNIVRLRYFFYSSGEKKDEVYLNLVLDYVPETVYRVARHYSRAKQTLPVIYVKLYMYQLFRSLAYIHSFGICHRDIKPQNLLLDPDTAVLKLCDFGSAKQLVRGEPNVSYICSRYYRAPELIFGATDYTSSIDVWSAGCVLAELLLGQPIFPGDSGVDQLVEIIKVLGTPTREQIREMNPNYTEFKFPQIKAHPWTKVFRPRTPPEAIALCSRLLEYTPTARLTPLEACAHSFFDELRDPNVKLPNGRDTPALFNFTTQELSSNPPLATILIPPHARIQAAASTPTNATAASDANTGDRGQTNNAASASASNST
Lyn(h), sequence (P07948 whole entry): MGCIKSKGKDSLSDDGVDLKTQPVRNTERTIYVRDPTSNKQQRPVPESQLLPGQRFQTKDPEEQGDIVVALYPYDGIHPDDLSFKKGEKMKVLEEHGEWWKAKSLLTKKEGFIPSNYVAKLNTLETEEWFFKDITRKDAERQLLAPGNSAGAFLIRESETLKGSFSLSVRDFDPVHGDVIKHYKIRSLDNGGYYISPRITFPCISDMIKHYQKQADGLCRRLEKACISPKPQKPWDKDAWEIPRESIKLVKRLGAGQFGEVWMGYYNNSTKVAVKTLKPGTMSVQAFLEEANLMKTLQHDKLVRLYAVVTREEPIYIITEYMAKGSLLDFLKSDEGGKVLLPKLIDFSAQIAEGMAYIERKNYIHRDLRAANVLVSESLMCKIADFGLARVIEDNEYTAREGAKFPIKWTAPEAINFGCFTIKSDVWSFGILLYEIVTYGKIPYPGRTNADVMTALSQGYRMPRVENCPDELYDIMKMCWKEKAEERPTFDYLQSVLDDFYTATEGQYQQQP
CaMKI(h), sequence (Q14012 whole entry): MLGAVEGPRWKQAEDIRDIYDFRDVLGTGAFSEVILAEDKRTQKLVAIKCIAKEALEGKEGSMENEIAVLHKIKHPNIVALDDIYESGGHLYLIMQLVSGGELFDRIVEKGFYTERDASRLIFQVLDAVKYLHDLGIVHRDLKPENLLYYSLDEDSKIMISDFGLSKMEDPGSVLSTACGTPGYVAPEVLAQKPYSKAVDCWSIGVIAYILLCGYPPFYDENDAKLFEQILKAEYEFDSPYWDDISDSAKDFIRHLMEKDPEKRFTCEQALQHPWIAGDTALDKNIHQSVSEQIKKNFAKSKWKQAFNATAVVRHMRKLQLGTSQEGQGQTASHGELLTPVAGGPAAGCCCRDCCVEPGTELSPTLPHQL
KDR(h), sequence (P35968 790-1356 limits assumed): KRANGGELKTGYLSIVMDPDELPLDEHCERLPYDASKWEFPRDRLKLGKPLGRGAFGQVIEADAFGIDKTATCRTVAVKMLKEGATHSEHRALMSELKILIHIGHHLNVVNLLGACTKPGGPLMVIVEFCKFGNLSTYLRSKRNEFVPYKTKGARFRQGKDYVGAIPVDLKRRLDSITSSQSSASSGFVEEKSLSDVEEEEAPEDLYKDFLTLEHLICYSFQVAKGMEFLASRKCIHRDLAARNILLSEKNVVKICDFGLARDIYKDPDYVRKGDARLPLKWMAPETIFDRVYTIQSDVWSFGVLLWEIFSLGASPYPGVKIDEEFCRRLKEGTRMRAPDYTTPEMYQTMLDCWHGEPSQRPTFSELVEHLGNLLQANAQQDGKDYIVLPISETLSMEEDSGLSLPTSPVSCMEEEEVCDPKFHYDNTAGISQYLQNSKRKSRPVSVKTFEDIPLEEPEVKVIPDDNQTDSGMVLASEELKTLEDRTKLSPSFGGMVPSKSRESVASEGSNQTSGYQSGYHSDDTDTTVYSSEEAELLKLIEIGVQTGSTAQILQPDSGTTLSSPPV
FGFR4(h), sequence (P22455 460-802 limits assumed): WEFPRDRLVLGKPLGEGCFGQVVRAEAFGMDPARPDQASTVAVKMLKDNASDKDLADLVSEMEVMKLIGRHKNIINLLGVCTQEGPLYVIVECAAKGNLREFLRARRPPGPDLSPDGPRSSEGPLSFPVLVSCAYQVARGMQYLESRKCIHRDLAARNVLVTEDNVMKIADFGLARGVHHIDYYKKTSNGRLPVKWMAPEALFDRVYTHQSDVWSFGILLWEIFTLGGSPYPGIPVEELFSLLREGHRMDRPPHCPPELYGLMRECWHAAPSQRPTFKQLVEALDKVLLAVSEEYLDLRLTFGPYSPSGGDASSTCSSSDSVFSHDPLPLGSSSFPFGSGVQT

Binder | % activity, 100 µM (DCAMKL2(h)) [%] | % activity, 100 µM (PKGδ(h)) [%] | % activity, 100 µM (Lyn(h)) [%] | % activity, 100 µM (Ron(h)) [%] | % activity, 100 µM (CaMKI(h)) [%] | % activity, 100 µM (DMPK(h)) [%] | % activity, 100 µM (FGFR4(h)) [%] | % activity, 100 µM (EphB4(h)) [%] | % activity, 100 µM (IRR(h)) [%] | % activity, 100 µM (Syk(h)) [%] | % activity, 100 µM (6SK3β(h)) [%] | % activity, 100 µM (KDR(h)) [%] | % activity, 100 µM (Ret(V804L)(h)) [%]
KAFAKLAARLYRKALARQLGVAA [MMI-0400] | 70 | 90 | 3 | 79 | 0 | 54 | 19 | 28 | 8 | 9 | 202 | 94 | 73
FAKLAARLYRKALARQLGVAA [MMI-0300] | 81 | 101 | 69 | 93 | 1 | 59 | 28 | 44 | 8 | 24 | 205 | 101 | 79
